Laboratory results published in PMC10053435.

What was measured:
[1] = molecular target: naïve EcHsp60 R264AK266A (Epinephelus coioides (grouper)); assay: SEC; WT and mutated naïve EcHsp60 purified at 4°C; analytical Superdex 200 Increase 10/300 GL
[2] = molecular target: naïve EcHsp60 R264AK266A (Epinephelus coioides (grouper)); assay: negative-stain TEM with single particle analysis; purified oligomeric EcHSP60 at 1 mg/ml, 2% uranyl acetate, 2D classification
[3] = molecular target: naïve EcHsp60 K266A (Epinephelus coioides (grouper)); assay: SEC; WT and mutated naïve EcHsp60 purified at 4°C; analytical Superdex 200 Increase 10/300 GL
[4] = molecular target: mature Epinephelus coioides mtHsp60 (EcHsp60), without the mitochondrial importing signal (Epinephelus coioides (grouper)); assay: SEC; protein homogenised and purified at room temperature (RT, 25°C); Superdex S200pg 16/600, 25 mM Tris-HCl pH 7.6, 150 mM NaCl, 1 ml/min
[5] = molecular target: mature Epinephelus coioides mtHsp60 (EcHsp60), without the mitochondrial importing signal (Epinephelus coioides (grouper)); assay: cross-linking; dimeric EcHsp60 at 0.6 mg/ml, BS^3 0.15 to 0.6 mM, 37°C 30 min, phosphate buffer pH 7.6 with 300 mM NaCl, SDS-PAGE
[6] = molecular target: mature Epinephelus coioides mtHsp60 (EcHsp60), without the mitochondrial importing signal (Epinephelus coioides (grouper)); assay: SEC; protein homogenised and purified at 4°C (LT); Superdex S200pg 16/600, 25 mM Tris-HCl pH 7.6, 150 mM NaCl, 1 ml/min
[7] = molecular target: mature Epinephelus coioides mtHsp60 (EcHsp60), without the mitochondrial importing signal (Epinephelus coioides (grouper)); assay: negative-stain TEM with single particle analysis; purified oligomeric EcHSP60 at 1 mg/ml, 2% uranyl acetate, 2D classification

Substance: naïve EcHsp60 R264AK266A (natural protein)
- stoichiometry N [1]: 7
- stoichiometry N [2]: 7

Substance: naïve EcHsp60 K266A (natural protein)
- stoichiometry N [3]: 7

Substance: mature Epinephelus coioides mtHsp60 (EcHsp60), without the mitochondrial importing signal (natural protein)
- stoichiometry N [4]: 7
- stoichiometry N [5]: 2
- stoichiometry N [6]: 2
- stoichiometry N [7]: 7
